What was measured:
[1] = target: T1, murine folate receptor alpha (mouse, UniProt P35846 25-232); assay: FACS, CHO-mFOLR1 cells;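 note: flow cytometry binding of serially diluted test antibodies to transfected CHO cells on ice, mean fluorescence intensity, parental CHO cells give background, Kd from one-site specific binding fit with Hill slope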
T1 construct: Expressed on the surface of stably transfected CHO cells; also called mouse FolR1; CHO-mouse FolR1

[2] = target: T2, human folate receptor alpha (hFOLR1) (human, UniProt P15328 25-234); assay: FACS, CHO-hFOLR1 cells;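 note: flow cytometry of serially diluted antibodies binding CHO cells stably expressing the receptor, 60 min on ice, mixed with dye-tagged parental CHO as background control, one-site specific fit with Hill slope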
T2 construct: endogenous on FOLR1-positive KB and Igrov1 cells (cell killing); also called human FolR1; FolRα

[3] = target: T3, cynomolgus monkey folate receptor alpha (cynomolgus monkey, UniProt P15328 25-234 (human entry)); assay: FACS, CHO-cFOLR1 cells
T3 construct: Expressed on the surface of stably transfected CHO cells; also called cyno FolR1; CHO-cyno FolR1

[4] = target: T2, human folate receptor alpha (hFOLR1); assay: cell-based or functional assay

T2 sequence (P15328 25-234 limits assumed): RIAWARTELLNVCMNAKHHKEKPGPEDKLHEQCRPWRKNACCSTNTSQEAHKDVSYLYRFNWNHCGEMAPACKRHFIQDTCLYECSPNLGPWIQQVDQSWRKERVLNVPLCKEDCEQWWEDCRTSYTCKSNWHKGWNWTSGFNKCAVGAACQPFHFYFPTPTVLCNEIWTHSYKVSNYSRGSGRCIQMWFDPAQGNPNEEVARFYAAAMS
T1 sequence (P35846 25-232 limits assumed): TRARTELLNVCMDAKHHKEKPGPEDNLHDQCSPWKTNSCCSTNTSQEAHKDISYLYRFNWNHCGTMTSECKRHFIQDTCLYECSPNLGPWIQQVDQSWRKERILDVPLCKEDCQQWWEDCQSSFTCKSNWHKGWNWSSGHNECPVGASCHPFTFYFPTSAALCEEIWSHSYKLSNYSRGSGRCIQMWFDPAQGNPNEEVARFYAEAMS
T3 sequence (P15328 other isoform, or with tags, fused parts or gaps limits assumed): as the sequence (P15328 25-234 limits assumed) above, with I2T, W4R, R37K, Q117R, A146P, H171Y counted along it

Binder | binding result [1] | Bmax (MFI) [2] [MFI] | Kd [2] [nM] | Bmax (MFI) [3] [MFI] | Kd [3] [nM] | Bmax (MFI) [1] [MFI] | Kd [1] [nM] | Igrov, 2° Antibody Cell Killing, Nb-SC239: EC50 [4] [nM] | Igrov, 2° Antibody Cell Killing, Nb-SC239: Span [4] [%] | KB, 2° Antibody Cell Killing, Nb-239: EC50 [4] [nM] | KB, 2° Antibody Cell Killing, Nb-239: Span [4] [%]
SRP1848-F10 (antibody, V domains shown, HC variant paired with trastuzumab LC, cell-free expressed, HIS- and FLAG-tagged; also called Antibody 45) VH: EVQLVESGGGLVQPGGSLRLSCAASGFNISNNSIHWVRQAPGKGLEWVGSIFPNDGYTDYADSVKGRFTISADTSKNTAYLQMNSLRAEDTAVYYCARGSWFWRSGYGYYLDYWGQGTLVTVSS VL: not shown | – | 25600 | 0.36 | 20700 | 0.4 | 1740 | 6.9 | 0.009 | 68 | 0.038 | 94
SRP1848-F07 (antibody, V domains shown, HC variant paired with trastuzumab LC, cell-free expressed, HIS- and FLAG-tagged; also called Antibody 42) VH: EVQLVESGGGLVQPGGSLRLSCAASGFNISNHSIHWVRQAPGKGLEWVGEIYPNDGITDYADSVKGRFTISADTSKNTAYLQMNSLSAEDTAVYYCARGSWDWRSGYSYYLDYWGQGTLVTVSS VL: not shown | – | 27400 | 0.58 | 18700 | 0.56 | 1390 | 8.8 | 0.018 | 71 | 0.057 | 92
SRP1848-F09 (antibody, V domains shown, HC variant paired with trastuzumab LC, cell-free expressed, HIS- and FLAG-tagged; also called Antibody 44) VH: EVQLVESGGGLVQPGGSLRLSCAASGFNISNHYIHWVRQAPGKGLEWVGGISPLDGYTDYADSVKGRFTISADTSKNTAYLQMNSLRAEDTAVYYCARGAWSWRSGYGYYIDYWGQGTLVTVSS VL: not shown | – | 23800 | 0.36 | 24200 | 0.75 | 1670 | 90.7 | 0.05 | 79 | 0.056 | 93

Second part, led by results:

binding result [1] | Bmax (MFI) [2] [MFI] | Kd [2] [nM] | Bmax (MFI) [3] [MFI] | Kd [3] [nM] | Bmax (MFI) [1] [MFI] | Kd [1] [nM] | Binder | Igrov, 2° Antibody Cell Killing, Nb-SC239: EC50 [4] [nM] | Igrov, 2° Antibody Cell Killing, Nb-SC239: Span [4] [%] | KB, 2° Antibody Cell Killing, Nb-239: EC50 [4] [nM] | KB, 2° Antibody Cell Killing, Nb-239: Span [4] [%]
no binding | 25600 | 0.87 | 26500 | 0.86 | – | – | SRP1848-F06 (antibody, V domains shown, HC variant paired with trastuzumab LC, cell-free expressed, HIS- and FLAG-tagged; also called Antibody 41) VH: EVQLVESGGGLVQPGGSLRLSCAASGFNISLSYIHWVRQAPGKGLEWVGGISPIDGNTDYADSVKGRFTISADTSKNTAYLQMNSLRAEDTAVYYCARGFWAWRSGYGYYLDYWGQGTLVTVSS VL: not shown | 0.032 | 77 | 0.066 | 94
no binding | 26500 | 0.91 | 21000 | 1.07 | – | – | SRP1848-F08 (antibody, V domains shown, HC variant paired with trastuzumab LC, cell-free expressed, HIS- and FLAG-tagged; also called Antibody 43) VH: EVQLVESGGGLVQPGGSLRLSCAAGGFNISNHSIHWVRQAPGKGVEWVGEIYPVDGITDYADSVKGRFTISADTSKNTAYLRMNSLRAEDTAVYYCARGSWYWQSGYSYYLDYWGQGTLVTVSS VL: not shown | 0.024 | 77 | 0.061 | 94
– | 26800 | 0.75 | 21800 | 0.47 | 1760 | 4.6 | SRP1848-F11 (antibody, V domains shown, HC variant paired with trastuzumab LC, cell-free expressed, HIS- and FLAG-tagged; also called Antibody 46) VH: EVQLVESGGGLVQPGGSLRLSCAASGFNISNNYIHWVRQAPGKGLEWVGGITPIDGNTDYADSVKGRFTISADTSMNTAYLQMNSLRAEDTAVYYCARGSWYWRAGYGYYLDYWGQGALVTVSS VL: not shown | 0.017 | 70 | 0.054 | 91
